Measured values from the supplement of paper PMC11246515.
± gives the standard deviation of the averaged measurements.

Experiment: total protein half-life in vivo (active degradation + dilution); higher = more stable protein
[1] = E. coli NCM3722 delta-clpP delta-lon delta-hslV, growth: N-lim chemostat, doubling time 6 h
[2] = E. coli NCM3722 delta-clpP, growth: N-lim chemostat, doubling time 6 h
[3] = E. coli NCM3722 delta-lon, growth: N-lim chemostat, doubling time 6 h
[4] = E. coli NCM3722 delta-smpB, growth: N-lim chemostat, doubling time 6 h
[5] = wild type E. coli NCM3722, growth: C-lim chemostat, doubling time 3 h
[6] = wild type E. coli NCM3722, growth: C-lim chemostat, doubling time 6 h
[7] = wild type E. coli NCM3722, growth: C-lim chemostat, doubling time 12 h
[8] = wild type E. coli NCM3722, growth: N-lim chemostat, doubling time 6 h
[9] = wild type E. coli NCM3722, growth: N-lim chemostat, doubling time 12 h
[10] = wild type E. coli NCM3722, growth: P-lim chemostat, doubling time 6 h
[11] = wild type E. coli NCM3722, growth: P-lim chemostat, doubling time 12 h
[12] = E. coli NCM3722 delta-hslV, growth: N-lim chemostat, doubling time 6 h

| Sequence | total protein half-life in vivo [1] | total protein half-life in vivo [2] | total protein half-life in vivo [3] | total protein half-life in vivo [4] | total protein half-life in vivo [5] | total protein half-life in vivo [6] | total protein half-life in vivo [7] | total protein half-life in vivo [8] | total protein half-life in vivo [9] | total protein half-life in vivo [10] | total protein half-life in vivo [11] | total protein half-life in vivo [12] |
| --- | --- | --- | --- | --- | --- | --- | --- | --- | --- | --- | --- | --- |
| MPPRALLLVDLQNDFCAGGALAVPEGDSTVDVANRLIDWCQSRGEAVIASQDWHPANHGSFASQHGVEPYTPGQLDGLPQTFWPDHCVQNSEGAQLHPLLHQKAIAAVFHKGENPLVDSYSAFFDNGRRQKTSLDDWLRDHEIDELIVMGLATDYCVKFTVLDALQLGYKVNVITDGCRGVNIQPQDSAHAFMEMSAAGATLYTLADWEETQG | 4.67 ± 0.11 h | 3.93 ± 0.17 h | 4.52 ± 1.1 h | 3.78 ± 0.19 h | 3.05 ± 0.12 h | 6.27 ± 1.3 h | 10.1 ± 0.99 h | 4.16 ± 0.32 h | 6.53 h | 4.76 h | 11.1 ± 0.22 h |  |
| MPPRRYNPDTRRDELLERINLDIPGAVAQALREDLGGTVDANNDITAKLLPENSRSHATVITRENGVFCGKRWVEEVFIQLAGDDVTIIWHVDDGDVINANQSLFELEGPSRVLLTGERTALNFVQTLSGVASKVRHYVELLEGTNTQLLDTRKTLPGLRSALKYAVLCGGGANHRLGLSDAFLIKENHIIASGSVRQAVEKASWLHPDAPVEVEVENLEELDEALKAGADIIMLDNFETEQMREAVKRTNGKALLEVSGNVTDKTLREFAETGVDFISVGALTKHVQALDLSMRFR | 4.6 ± 0.47 h | 5.46 ± 2.3 h | 6.13 ± 1.8 h | 4.05 ± 0.33 h | 2.86 ± 0.25 h | 5.827 ± 0.04 h | 8.46 ± 0.51 h | 3.72 ± 0.12 h | 7.1 ± 0.15 h | 5.5 ± 0.4 h | 9.73 ± 0.27 h | 4.1 ± 0.29 h |
| MPQSALFTGIIPPVSTIFTADGQLDKPGTAALIDDLIKAGVDGLFFLGSGGEFSQLGAEERKAIARFAIDHVDRRVPVLIGTGGTNARETIELSQHAQQAGADGIVVINPYYWKVSEANLIRYFEQVADSVTLPVMLYNFPALTGQDLTPALVKTLADSRSNIIGIKDTIDSVAHLRSMIHTVKGAHPHFTVLCGYDDHLFNTLLLGGDGAISASGNFAPQVSVNLLKAWRDGDVAKAAGYHQTLLQIPQMYQLDTPFVNVIKEAIVLCGRPVSTHVLPPASPLDEPRKAQLKTLLQQLKLC |  |  |  |  |  |  |  |  |  |  |  | 3.07 h |
| MPRFAANLSMMFTEVPFIERFAAARKAGFDAVEFLFPYNYSTLQIQKQLEQNHLTLALFNTAPGDINAGEWGLSALPGREHEAHADIDLALEYALALNCEQVHVMAGVVPAGEDAERYRAVFIDNIRYAADRFAPHGKRILVEALSPGVKPHYLFSSQYQALAIVEEVARDNVFIQLDTFHAQKVDGNLTHLIRDYAGKYAHVQIAGLPDRHEPDDGEINYPWLFRLFDEVGYQGWIGCEYKPRGLTEEGLGWFDAWR | 3.98 h | 2.21 h | 2.48 ± 0.15 h | 2.41 ± 0.048 h | 2.829 ± 0.0073 h | 3.68 ± 0.23 h | 6.54 ± 0.17 h |  | 3.45 h | 4.28 h | 8.69 ± 0.052 h | 2.23 h |
| MPRLASAVLPLCSQHPGQCGLFPLEKSLDAFAARYRLAEMAEHTLDVQYYIWQDDMSGRLLFSALLAAAKRGVRVRLLLDDNNTPGLDDILRLLDSHPRIEVRLFNPFSFRLLRPLGYITDFSRLNRRMHNKSFTVDGVVTLVGGRNIGDAYFGAGEEPLFSDLDVMAIGPVVEDVADDFARYWYCKSVSPLQQVLDVPEGEMADRIELPASWHNDAMTHRYLRKMESSPFINHLVDGTLPLIWAKTRLLSDDPAKGEGKAKRHSLLPQRLFDIMGSPSERIDIISSYFVPTRAGVAQLLRMVRKGVKIAILTNSLAANDVAVVHAGYARWRKKLLRYGVELYELKPTREQSSTLHDRGITGNSGASLHAKTFSIDGKTVFIGSFNFDPRSTLLNTEMGFVIESETLAQLIDKRFIQSQYDAAWQLRLDRWGRINWVDRHAKKEIILKKEPATSFWKRVMVRLASILPVEWLL | 5.59 ± 0.72 h | 5.95 ± 0.048 h | 5.31 ± 0.46 h | 5.1 ± 0.35 h | 2.78 ± 0.11 h | 5.38 ± 0.64 h |  | 4.78 ± 0.52 h | 11.1 ± 0.75 h | 5.59 ± 0.044 h |  | 5.92 ± 1.4 h |
| MPRLLTKRGCWITLAAAPFLLFLAAWGADKLWPLPLHEVNPARVVVAQDGTPLWRFADADGIWRYPVTIEDVSPRYLEALINYEDRWFWKHPGVNPFSVARAAWQDLTSGRVISGGSTLTMQVARLLDPHPKTFGGKIRQLWRALQLEWHLSKREILTLYLNRAPFGGTLQGIGAASWAYLGKSPANLSYSEAAMLAVLPQAPSRLRPDRWPERAEAARNKVLERMAVQGVWSREQVKESREEPIWLAPRQMPQLAPLFSRMMLGKSKSDKITTTLDAGLQRRLEELAQNWKGRLPPRSSLAMIVVDHTDMRVRGWVGSVDLNDDSRFGHVDMVNSIRSPGSVLKPFVYGLALDEGLIHPASLLQDVPRRTGDYRPGNFDSGFHGPISMSEALVRSLNLPAVQVLEAYGPKRFAAKLRNVGLPLYLPNGAAPNLSLILGGAGAKLEDMAAAYTAFARHGKAGKLRLQPDDPLLERPLMSSGAAWIIRRIMADEAQPLPDSALPRVAPLAWKTGTSYGYRDAWAIGVNARYVIGIWTGRPDGTPVVGQFGFASAVPLLNQVNNILLSRSANLPEDPRPNSVTRGVICWPGGQSLPEGDGNCRRRLATWLLDGSQPPTLLLPEQEGINGIRFPIWLDENGKRVAADCPQARQEMINVWPLPLEPWLPASERRAVRLPPASTSCPPYGHDAQLPLQLTGVRDGAIIKRLPGAAEATLPLQSSGGAGERWWFLNGEPLTERGRNVTLHLTDKGDYQLLVMDDVGQIATVKFVMQ | 5.44 h | 6.31 ± 1.1 h | 5.64 ± 0.55 h | 4.87 ± 1.3 h | 3.04 h |  | 11.2 h | 5.98 h | 13.92 ± 0.086 h | 6.15 ± 2 h | 9.01 ± 4 h | 5.74 ± 0.091 h |
